Experimental findings from patent US12630600B2 (MEDIMMUNE LIMITED, priority 2022, dated 2026) are described below.

Starred links: 1 amine or outer side, 2 acyl side, 3 side chain; linkers in the order of their positions; H or OH if unused. Non-standard residues stand in square brackets, D forms with d. Groups on a side chain read outwards from the residue. No end group written: not given here. *: point of attachment. C20 diacid = O=C(O)CCCCCCCCCCCCCCCCCCC(=O)*; C18 diacid = O=C(O)CCCCCCCCCCCCCCCCC(=O)*; γGlu = O=C(O)[C@H](CCC(=O)[*:2])N[*:1]; αMeF = C[C@](N)(Cc1ccccc1)C(=O)O; AEEA = NCCOCCOCC(=O)O; Aib = CC(C)(N)C(=O)O

One experiment has as its target human GLP-1 receptor (human, UniProt P43220). In words: cell-based or functional assay.
A further experiment concerns the target human glucagon receptor (human, UniProt P47871). In words: cell-based or functional assay.

B1: Peptide 494 (peptide)
peptide: H[Aib]QGTFTSDVSK[αMeF]LDTK([AEEA-AEEA-γGlu-C20 diacid])RAQDFVRWLLR[Aib]K-OH
B1: the entries for the “cAMP production EC50” value in the experiment with human GLP-1 receptor and with human glucagon receptor were 0.0987 nM and 0.212 nM, respectively.

B2: Peptide 495 (peptide)
peptide: H[Aib]QGTFTSDVSK[αMeF]LDTK([AEEA-AEEA-γGlu-C18 diacid])RAQDFVRWLLR[Aib]K-NH2
modifications: N-terminus assumed
SMILES: CC(C)C[C@H](NC(=O)[C@H](Cc1c[nH]c2ccccc12)NC(=O)[C@H](CCCNC(=N)N)NC(=O)[C@@H](NC(=O)[C@H](Cc1ccccc1)NC(=O)[C@H](CC(=O)O)NC(=O)[C@H](CCC(N)=O)NC(=O)[C@H](C)NC(=O)[C@H](CCCNC(=N)N)NC(=O)[C@H](CCCCNC(=O)COCCOCCNC(=O)COCCOCCNC(=O)CC[C@H](NC(=O)CCCCCCCCCCCCCCCCC(=O)O)C(=O)O)NC(=O)[C@@H](NC(=O)[C@H](CC(=O)O)NC(=O)[C@H](CC(C)C)NC(=O)[C@](C)(Cc1ccccc1)NC(=O)[C@H](CCCCN)NC(=O)[C@H](CO)NC(=O)[C@@H](NC(=O)[C@H](CC(=O)O)NC(=O)[C@H](CO)NC(=O)[C@@H](NC(=O)[C@H](Cc1ccccc1)NC(=O)[C@@H](NC(=O)CNC(=O)[C@H](CCC(N)=O)NC(=O)C(C)(C)NC(=O)[C@@H](N)Cc1c[nH]cn1)[C@@H](C)O)[C@@H](C)O)C(C)C)[C@@H](C)O)C(C)C)C(=O)N[C@@H](CC(C)C)C(=O)N[C@@H](CCCNC(=N)N)C(=O)NC(C)(C)C(=O)N[C@@H](CCCCN)C(N)=O
Regarding B2, the “cAMP production EC50” value with human GLP-1 receptor is 0.0232 nM; with human glucagon receptor, 0.38 nM.

B3: Peptide 493 (peptide)
peptide: H[Aib]QGTFTSDVSK[αMeF]LDTK([AEEA-AEEA-γGlu-C18 diacid])RAQDFVRWLLR[Aib]K-OH
modifications: N-terminus assumed
SMILES: CC(C)C[C@H](NC(=O)[C@H](Cc1c[nH]c2ccccc12)NC(=O)[C@H](CCCNC(=N)N)NC(=O)[C@@H](NC(=O)[C@H](Cc1ccccc1)NC(=O)[C@H](CC(=O)O)NC(=O)[C@H](CCC(N)=O)NC(=O)[C@H](C)NC(=O)[C@H](CCCNC(=N)N)NC(=O)[C@H](CCCCNC(=O)COCCOCCNC(=O)COCCOCCNC(=O)CC[C@H](NC(=O)CCCCCCCCCCCCCCCCC(=O)O)C(=O)O)NC(=O)[C@@H](NC(=O)[C@H](CC(=O)O)NC(=O)[C@H](CC(C)C)NC(=O)[C@](C)(Cc1ccccc1)NC(=O)[C@H](CCCCN)NC(=O)[C@H](CO)NC(=O)[C@@H](NC(=O)[C@H](CC(=O)O)NC(=O)[C@H](CO)NC(=O)[C@@H](NC(=O)[C@H](Cc1ccccc1)NC(=O)[C@@H](NC(=O)CNC(=O)[C@H](CCC(N)=O)NC(=O)C(C)(C)NC(=O)[C@@H](N)Cc1c[nH]cn1)[C@@H](C)O)[C@@H](C)O)C(C)C)[C@@H](C)O)C(C)C)C(=O)N[C@@H](CC(C)C)C(=O)N[C@@H](CCCNC(=N)N)C(=O)NC(C)(C)C(=O)N[C@@H](CCCCN)C(=O)O
As for B3, the “cAMP production EC50” value with human GLP-1 receptor came to 0.0234 nM; in the experiment with human glucagon receptor, 0.166 nM.

B4: Peptide 491 (peptide)
peptide: H[Aib]QGTFTSDVSK[αMeF]LDTK([AEEA-AEEA-γGlu-C18 diacid])RARDFVRWLL[Aib]TE-OH
modifications: N-terminus assumed
SMILES: CC(C)C[C@H](NC(=O)[C@H](Cc1c[nH]c2ccccc12)NC(=O)[C@H](CCCNC(=N)N)NC(=O)[C@@H](NC(=O)[C@H](Cc1ccccc1)NC(=O)[C@H](CC(=O)O)NC(=O)[C@H](CCCNC(=N)N)NC(=O)[C@H](C)NC(=O)[C@H](CCCNC(=N)N)NC(=O)[C@H](CCCCNC(=O)COCCOCCNC(=O)COCCOCCNC(=O)CC[C@H](NC(=O)CCCCCCCCCCCCCCCCC(=O)O)C(=O)O)NC(=O)[C@@H](NC(=O)[C@H](CC(=O)O)NC(=O)[C@H](CC(C)C)NC(=O)[C@](C)(Cc1ccccc1)NC(=O)[C@H](CCCCN)NC(=O)[C@H](CO)NC(=O)[C@@H](NC(=O)[C@H](CC(=O)O)NC(=O)[C@H](CO)NC(=O)[C@@H](NC(=O)[C@H](Cc1ccccc1)NC(=O)[C@@H](NC(=O)CNC(=O)[C@H](CCC(N)=O)NC(=O)C(C)(C)NC(=O)[C@@H](N)Cc1c[nH]cn1)[C@@H](C)O)[C@@H](C)O)C(C)C)[C@@H](C)O)C(C)C)C(=O)N[C@@H](CC(C)C)C(=O)NC(C)(C)C(=O)N[C@H](C(=O)N[C@@H](CCC(=O)O)C(=O)O)[C@@H](C)O
Consider B4, for which the “cAMP production EC50” value with human GLP-1 receptor is 0.0736 nM; in the experiment with human glucagon receptor, 0.232 nM.

B5: Peptide 492 (peptide)
peptide: H[Aib]QGTFTSDVSK[αMeF]LDTK([AEEA-AEEA-γGlu-C20 diacid])RARDFVRWLL[Aib]TE-OH
modifications: N-terminus assumed
SMILES: CC(C)C[C@H](NC(=O)[C@H](Cc1c[nH]c2ccccc12)NC(=O)[C@H](CCCNC(=N)N)NC(=O)[C@@H](NC(=O)[C@H](Cc1ccccc1)NC(=O)[C@H](CC(=O)O)NC(=O)[C@H](CCCNC(=N)N)NC(=O)[C@H](C)NC(=O)[C@H](CCCNC(=N)N)NC(=O)[C@H](CCCCNC(=O)COCCOCCNC(=O)COCCOCCNC(=O)CC[C@H](NC(=O)CCCCCCCCCCCCCCCCCCC(=O)O)C(=O)O)NC(=O)[C@@H](NC(=O)[C@H](CC(=O)O)NC(=O)[C@H](CC(C)C)NC(=O)[C@](C)(Cc1ccccc1)NC(=O)[C@H](CCCCN)NC(=O)[C@H](CO)NC(=O)[C@@H](NC(=O)[C@H](CC(=O)O)NC(=O)[C@H](CO)NC(=O)[C@@H](NC(=O)[C@H](Cc1ccccc1)NC(=O)[C@@H](NC(=O)CNC(=O)[C@H](CCC(N)=O)NC(=O)C(C)(C)NC(=O)[C@@H](N)Cc1c[nH]cn1)[C@@H](C)O)[C@@H](C)O)C(C)C)[C@@H](C)O)C(C)C)C(=O)N[C@@H](CC(C)C)C(=O)NC(C)(C)C(=O)N[C@H](C(=O)N[C@@H](CCC(=O)O)C(=O)O)[C@@H](C)O
For B5, the results for the “cAMP production EC50” value with human GLP-1 receptor and with human glucagon receptor were 0.212 nM and 0.374 nM, respectively.

B6: Peptide 490 (peptide)
peptide: H[Aib]QGTFTSDVSK[αMeF]LDTK([AEEA-AEEA-γGlu-C20 diacid])RARDFVQWLL[Aib]TE-NH2
modifications: N-terminus assumed
SMILES: CC(C)C[C@H](NC(=O)[C@H](Cc1c[nH]c2ccccc12)NC(=O)[C@H](CCC(N)=O)NC(=O)[C@@H](NC(=O)[C@H](Cc1ccccc1)NC(=O)[C@H](CC(=O)O)NC(=O)[C@H](CCCNC(=N)N)NC(=O)[C@H](C)NC(=O)[C@H](CCCNC(=N)N)NC(=O)[C@H](CCCCNC(=O)COCCOCCNC(=O)COCCOCCNC(=O)CC[C@H](NC(=O)CCCCCCCCCCCCCCCCCCC(=O)O)C(=O)O)NC(=O)[C@@H](NC(=O)[C@H](CC(=O)O)NC(=O)[C@H](CC(C)C)NC(=O)[C@](C)(Cc1ccccc1)NC(=O)[C@H](CCCCN)NC(=O)[C@H](CO)NC(=O)[C@@H](NC(=O)[C@H](CC(=O)O)NC(=O)[C@H](CO)NC(=O)[C@@H](NC(=O)[C@H](Cc1ccccc1)NC(=O)[C@@H](NC(=O)CNC(=O)[C@H](CCC(N)=O)NC(=O)C(C)(C)NC(=O)[C@@H](N)Cc1c[nH]cn1)[C@@H](C)O)[C@@H](C)O)C(C)C)[C@@H](C)O)C(C)C)C(=O)N[C@@H](CC(C)C)C(=O)NC(C)(C)C(=O)N[C@H](C(=O)N[C@@H](CCC(=O)O)C(N)=O)[C@@H](C)O
With B6, the “cAMP production EC50” value turned out to be 0.069 nM in the experiment with human GLP-1 receptor and 0.396 nM with human glucagon receptor.
